Source: the Human Domainome abundance scans (Beltran et al. 2025)
± gives the uncertainty stated by the source.

B1: Tumor protein 63, residues 545 to 610; numbered along this chain, Q9H3D4 (parent)
chain: TDCSIVSFLARLGCSSCLDYFTTQGLTTIYQIEHYSMDDLASLKIPEQFRHAIWKGILDHRQLHEF

Variants of: B1
Test: abundance fitness (aPCA) (normalised: wild type 0, dead -1); higher = more abundant; growth selection in yeast, the domain comes from the species named
Details: Homo sapiens

Variant	abundance fitness
TDCSIVSFLARLGCSSCLDYFTTQGQTTIYQIEHYSMDDLASLKIPEQFRHAIWKGILDHRQLHEF [L26Q]	-0.345 ± 0.041
TDCSIVSFLARLGCSSCLDYFTTQGHTTIYQIEHYSMDDLASLKIPEQFRHAIWKGILDHRQLHEF [L26H]	-0.225 ± 0.04
TDCSIVSFLARLGCSSCLDYFTTQGFTTIYQIEHYSMDDLASLKIPEQFRHAIWKGILDHRQLHEF [L26F]	-0.106 ± 0.055
TDCSIVSFLARLGCSSCLDYFTTQGRTTIYQIEHYSMDDLASLKIPEQFRHAIWKGILDHRQLHEF [L26R]	-0.436 ± 0.022
TDCSIVSFLARLGCSSCLDYFTTQGPTTIYQIEHYSMDDLASLKIPEQFRHAIWKGILDHRQLHEF [L26P]	-0.692 ± 0.065
TDCSIVSFLARLGCSSCLDYFTTGGLTTIYQIEHYSMDDLASLKIPEQFRHAIWKGILDHRQLHEF [Q24G]	-0.081 ± 0.022
TDCSIVSFLARLGCSSCLDYFTTTGLTTIYQIEHYSMDDLASLKIPEQFRHAIWKGILDHRQLHEF [Q24T]	-0.062 ± 0.026
TDCSIVSFLARLGCSSCLDYFTTPGLTTIYQIEHYSMDDLASLKIPEQFRHAIWKGILDHRQLHEF [Q24P]	-0.21 ± 0.033
TDCSIVSFLARLGCSSCLDYFTTMGLTTIYQIEHYSMDDLASLKIPEQFRHAIWKGILDHRQLHEF [Q24M]	-0.067 ± 0.034
TDCSIVSFLARLGCSSCLDYFTTYGLTTIYQIEHYSMDDLASLKIPEQFRHAIWKGILDHRQLHEF [Q24Y]	-0.121 ± 0.034
TDCSIVSFLARLGCSSCLDYFTTEGLTTIYQIEHYSMDDLASLKIPEQFRHAIWKGILDHRQLHEF [Q24E]	-0.039 ± 0.035
TDCSIVSFLARLGCSSCLDYFTTCGLTTIYQIEHYSMDDLASLKIPEQFRHAIWKGILDHRQLHEF [Q24C]	-0.048 ± 0.032
TDCSIVSFLARLGCSSCLDYFTTRGLTTIYQIEHYSMDDLASLKIPEQFRHAIWKGILDHRQLHEF [Q24R]	-0.023 ± 0.017
TDCSIVSFLARLGCSSCLDYFTTLGLTTIYQIEHYSMDDLASLKIPEQFRHAIWKGILDHRQLHEF [Q24L]	-0.081 ± 0.021
TDCSIVSFLARLGCSSCLDYFTTWGLTTIYQIEHYSMDDLASLKIPEQFRHAIWKGILDHRQLHEF [Q24W]	-0.138 ± 0.023
TDCSIVSFLARLGCSSCLDYFTTDGLTTIYQIEHYSMDDLASLKIPEQFRHAIWKGILDHRQLHEF [Q24D]	-0.152 ± 0.036
TDCSIVSFLARLGCSSCLDYFTTHGLTTIYQIEHYSMDDLASLKIPEQFRHAIWKGILDHRQLHEF [Q24H]	-0.015 ± 0.041
TDCSIVSFLARLGCSSCLDYFTTVGLTTIYQIEHYSMDDLASLKIPEQFRHAIWKGILDHRQLHEF [Q24V]	-0.04 ± 0.027
TDCSIVSFLARLGCSSCLDYFTTSGLTTIYQIEHYSMDDLASLKIPEQFRHAIWKGILDHRQLHEF [Q24S]	-0.037 ± 0.024
TDCSIVSFLARLGCSSCLDYFTTKGLTTIYQIEHYSMDDLASLKIPEQFRHAIWKGILDHRQLHEF [Q24K]	-0.018 ± 0.027
TDCSIVSFLARLGCSSCLDYFTTNGLTTIYQIEHYSMDDLASLKIPEQFRHAIWKGILDHRQLHEF [Q24N]	-0.089 ± 0.083

Variant	abundance fitness
TDCSIVSFLARLGCSSCLDYFTTIGLTTIYQIEHYSMDDLASLKIPEQFRHAIWKGILDHRQLHEF [Q24I]	-0.073 ± 0.06
TDCSIVSFLARLGCSSCLDYFTTAGLTTIYQIEHYSMDDLASLKIPEQFRHAIWKGILDHRQLHEF [Q24A]	-0.025 ± 0.036
TDCSIVSFLARLGCSSCLDYFTTFGLTTIYQIEHYSMDDLASLKIPEQFRHAIWKGILDHRQLHEF [Q24F]	-0.12 ± 0.044
TDCSIVSFLARLGCSSCLDYFTTQWLTTIYQIEHYSMDDLASLKIPEQFRHAIWKGILDHRQLHEF [G25W]	-0.733 ± 0.06
TDCSIVSFLARLGCSSCLDYFTTQCLTTIYQIEHYSMDDLASLKIPEQFRHAIWKGILDHRQLHEF [G25C]	-0.143 ± 0.028
TDCSIVSFLARLGCSSCLDYFTTQRLTTIYQIEHYSMDDLASLKIPEQFRHAIWKGILDHRQLHEF [G25R]	-0.093 ± 0.017
TDCSIVSFLARLGCSSCLDYFTTQELTTIYQIEHYSMDDLASLKIPEQFRHAIWKGILDHRQLHEF [G25E]	-0.067 ± 0.061
TDCSIVSFLARLGCSSCLDYFTTQYLTTIYQIEHYSMDDLASLKIPEQFRHAIWKGILDHRQLHEF [G25Y]	-0.349 ± 0.04
TDCSIVSFLARLGCSSCLDYFTTQHLTTIYQIEHYSMDDLASLKIPEQFRHAIWKGILDHRQLHEF [G25H]	-0.099 ± 0.053
TDCSIVSFLARLGCSSCLDYFTTQQLTTIYQIEHYSMDDLASLKIPEQFRHAIWKGILDHRQLHEF [G25Q]	-0.116 ± 0.049
TDCSIVSFLARLGCSSCLDYFTTQALTTIYQIEHYSMDDLASLKIPEQFRHAIWKGILDHRQLHEF [G25A]	-0.118 ± 0.032
TDCSIVSFLARLGCSSCLDYFTTQILTTIYQIEHYSMDDLASLKIPEQFRHAIWKGILDHRQLHEF [G25I]	-1 ± 0.14
TDCSIVSFLARLGCSSCLDYFTTQSLTTIYQIEHYSMDDLASLKIPEQFRHAIWKGILDHRQLHEF [G25S]	-0.062 ± 0.019
TDCSIVSFLARLGCSSCLDYFTTQPLTTIYQIEHYSMDDLASLKIPEQFRHAIWKGILDHRQLHEF [G25P]	-0.885 ± 0.075
TDCSIVSFLARLGCSSCLDYFTTQVLTTIYQIEHYSMDDLASLKIPEQFRHAIWKGILDHRQLHEF [G25V]	-0.866 ± 0.079
TDCSIVSFLARLGCSSCLDYFTTQFLTTIYQIEHYSMDDLASLKIPEQFRHAIWKGILDHRQLHEF [G25F]	-0.549 ± 0.046
TDCSIVSFLARLGCSSCLDYFTTQLLTTIYQIEHYSMDDLASLKIPEQFRHAIWKGILDHRQLHEF [G25L]	-0.582 ± 0.03
TDCSIVSFLARLGCSSCLDYFTTQTLTTIYQIEHYSMDDLASLKIPEQFRHAIWKGILDHRQLHEF [G25T]	-0.401 ± 0.039
TDCSIVSFLARLGCSSCLDYFTTQNLTTIYQIEHYSMDDLASLKIPEQFRHAIWKGILDHRQLHEF [G25N]	-0.048 ± 0.07
TDCSIVSFLARLGCSSCLDYFTTQMLTTIYQIEHYSMDDLASLKIPEQFRHAIWKGILDHRQLHEF [G25M]	-0.362 ± 0.031
